The Human Domainome abundance scans (Beltran et al. 2025)

B1: Membrane-associated guanylate kinase, WW and PDZ domain-containing protein 2, residues 601 to 682; numbered along this chain, Q86UL8 (parent)
chain: AELMTLTIVKGAQGFGFTIADSPTGQRVKQILDIQGCPGLCEGDLIVEINQQNVQNLSHTEVVDILKDCPIGSETSLIIHRG

Variants of: B1
Test: abundance fitness (aPCA) (normalised: wild type 0, dead -1); higher = more abundant; growth selection in yeast, the domain comes from the species named
Details: Homo sapiens

Abundance fitness of substitutions, site by site:
T75: K -0.133 | V 0.013 | L -0.045 | A 0.101 | E -0.072 | F -0.02 | D -0.09 | P -0.164 | S -0.331 | C -0.331 | Y -0.151 | I -0.101 | M 0.047 | R -0.113 | G -0.08 | N -0.115 | Q -0.148
I78: T -0.224 | G -0.075 | P -1.13 | M 0.144 | E -0.086 | K -0.122 | S 0.019 | F -0.035 | R 0.033 | A -0.179 | L -0.053 | Q -0.23 | N -0.011 | H -0.157 | W -0.129
C69: Y -0.174 | L -0.064 | N -0.195 | P -0.421 | E -0.086 | K 0.108 | A -0.029 | D -0.27 | S 0.177 | R -0.08 | V -0.03 | Q -0.125 | M -0.102 | H -0.329 | W -0.25 | T 0.085 | G -0.059
T60: D -0.136 | N 0.054 | A 0.146 | R -0.038 | K -0.003 | Y -0.165 | S -0.032 | W -0.075 | C 0.17 | E -0.051 | L -0.011 | M 0.012 | P -0.198 | V 0.004
E61: C -0.039 | M 0.08 | W -0.374 | H -0.051 | R 0.002 | I -0.409 | S -0.2 | L -0.046 | F -0.381 | V -0.132 | G -0.036 | A -0.151 | K -0.137 | D -0.005 | T -0.289
R81: N -0.144 | I -0.668 | K -0.21 | P 0.039 | Q -0.051 | M -0.387 | H 0.048 | A -0.098 | G 0.017 | D -0.538 | E -0.419
K67: A -0.072 | M -0.003 | T 0.093 | S 0.004 | W -0.224 | Q -0.145 | R 0.034 | N -0.022 | C -0.117 | E -0.034 | Y -0.226 | I -0.324 | F -0.062 | V -0.112 | G 0.052 | L -0.083 | H -0.23
S73: P -0.048 | A 0.021 | T -0.095 | V -0.025 | K -0.044 | F 0.029 | Q -0.098 | Y -0.178 | N -0.359 | W -0.06 | M -0.004 | R -0.132 | G 0.095 | H 0.024 | I -0.011 | L -0.102
E74: A -0.185 | V -0.122 | G -0.153 | T -0.422 | P 0.149 | C -0.322 | R 0.013 | I -0.214 | K -0.23 | Q -0.074 | M 0.062 | S -0.16 | H 0.241 | D 0.137 | W -0.069
H80: F -0.128 | A -0.049 | W -0.079 | E 0.019 | C -0.121 | D 0.043 | T 0.028 | N 0.124 | R 0.027 | P -0.395 | L -0.135 | S 0.014 | G -0.006 | V -0.231 | M -0.23
S76: V -0.031 | N -0.003 | Y 0.09 | D -0.124 | C 0.016 | P -0.046 | W -0.123 | Q 0 | L -0.061 | I -0.118 | E -0.044 | A -0.018 | M -0.003 | T -0.053 | H -0.668
